Paper PMC3691600, “Conversion of fatty aldehydes into alk (a/e)nes by in vitro reconstituted cyanobacterial aldehyde-deformylating oxygenase with the cognate electron transfer system” (Biotechnology for Biofuels, 2013)

Columns and labels:
purified protein = substrate: NC(=O)C1=CN([C@@H]2O[C@H](COP(=O)(O)OP(=O)(O)OC[C@H]3O[C@@H](n4cnc5c(N)ncnc54)[C@H](OP(=O)(O)O)[C@@H]3O)[C@@H](O)[C@H]2O)C=CC1; assay: purified protein; type: biochemical, Synechococcus elongatus; conditions: 0.7 mM potassium ferricyanide, 50 mM Tris-HCl pH 8.0, 25°C
[1] = substrate: CCCCCCC=O; assay: GC headspace assay of n-hexane formation; type: biochemical, Synechococcus elongatus; conditions: chemical reductants PMS/NADH, ferrous ammonium sulfate, HEPES pH 7.2, 100 mM KCl, 10% glycerol, 4% DMSO, 37°C (conditions of the kcat assay)

B1: FNR (SynPcc7942_0978) (Synechococcus elongatus PCC 7942 = FACHB-805) (protein)
chain: MLNASVAGGAATTTYGNRLFIYEVIGLRQAEGEPSDSSIRRSGSTFFKVPYSRMNQEMQRILRLGGKIVSIRPAEEAAANNGAAPLQAAAEEPAAAPTPAPAAKKHSAEDVPVNIYRPNKPFVGKVLSNEPLVQEGGIGVVQHLTFDISEGDLRYIEGQSIGIIPDGTDDKGKPHKLRLYSIASTRHGDHVDDKTVSLCVRQLQYQNEAGETINGVCSTFLCGLKPGDDVKITGPVGKEMLLPADTDANVIMMGTGTGIAPFRAYLWRMFKDNERAINSEYQFNGKAWLIFGIPTTANILYKEELEALQAQYPDNFRLTYAISREQKNEAGGRMYIQDRVAEHADEIWNLLKDEKTHVYICGLRGMEDGIDQAMTVAAAKEDVVWSDYQRTLKKAGRWHVETY
Purified protein
  Km: 92.5 ± 7.6 µM
  kcat: 227 ± 7 s⁻¹
  kcat/Km: 2.5e+06 ± 300000 M⁻¹ s⁻¹

B2: ADO 1593 (Synechococcus elongatus PCC 7942 = FACHB-805) (protein)
chain: MPQLEASLELDFQSESYKDAYSRINAIVIEGEQEAFDNYNRLAEMLPDQRDELHKLAKMEQRHMKGFMACGKNLSVTPDMGFAQKFFERLHENFKAAAAEGKVVTCLLIQSLIIECFAIAAYNIYIPVADAFARKITEGVVRDEYLHRNFGEEWLKANFDASKAELEEANRQNLPLVWLMLNEVADDARELGMERESLVEDFMIAYGEALENIGFTTREIMRMSAYGLAAV
notes: apo-ADO reconstituted with ferrous iron
[1]
  Km: 224 ± 40 µM
  kcat: 0.002 ± 0.00033 s⁻¹
